According to US20110166062A1 (INDIANA UNIVERSITY RESEARCH AND TECHNOLOGY, published 2011):
Where two headings read alike, the source gives them in different places. Bridges are numbered along the chain shown (N, C = ends). Where no end group is shown, it is not given here. [ ]: non-standard residue; d: D form. The star is where a group is joined. Stearoyl = CCCCCCCCCCCCCCCCCC(=O)*; Palmitoyl = CCCCCCCCCCCCCCCC(=O)*; Myristoyl = CCCCCCCCCCCCCC(=O)*; Aib = CC(C)(N)C(=O)O

Key:
Experiment in all cases: cell-based or functional assay
GIP receptor [1] = target: T1, GIP receptor (UniProt P48546 22-466)
T1 sequence (looked up): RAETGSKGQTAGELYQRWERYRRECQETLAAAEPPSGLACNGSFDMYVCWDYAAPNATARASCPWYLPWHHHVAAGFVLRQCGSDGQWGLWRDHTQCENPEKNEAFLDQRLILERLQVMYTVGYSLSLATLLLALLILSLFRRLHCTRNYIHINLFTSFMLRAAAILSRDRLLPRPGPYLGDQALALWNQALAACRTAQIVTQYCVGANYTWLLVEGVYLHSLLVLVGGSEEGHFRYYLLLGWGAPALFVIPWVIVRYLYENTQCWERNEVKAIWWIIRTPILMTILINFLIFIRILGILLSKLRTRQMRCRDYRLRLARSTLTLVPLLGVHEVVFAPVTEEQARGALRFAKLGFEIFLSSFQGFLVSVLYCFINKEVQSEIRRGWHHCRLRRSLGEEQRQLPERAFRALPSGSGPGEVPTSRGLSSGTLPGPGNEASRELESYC

glucagon receptor = glucagon receptor (UniProt P47871 26-477, limits assumed)
glucagon receptor, sequence (P47871 26-477 limits assumed): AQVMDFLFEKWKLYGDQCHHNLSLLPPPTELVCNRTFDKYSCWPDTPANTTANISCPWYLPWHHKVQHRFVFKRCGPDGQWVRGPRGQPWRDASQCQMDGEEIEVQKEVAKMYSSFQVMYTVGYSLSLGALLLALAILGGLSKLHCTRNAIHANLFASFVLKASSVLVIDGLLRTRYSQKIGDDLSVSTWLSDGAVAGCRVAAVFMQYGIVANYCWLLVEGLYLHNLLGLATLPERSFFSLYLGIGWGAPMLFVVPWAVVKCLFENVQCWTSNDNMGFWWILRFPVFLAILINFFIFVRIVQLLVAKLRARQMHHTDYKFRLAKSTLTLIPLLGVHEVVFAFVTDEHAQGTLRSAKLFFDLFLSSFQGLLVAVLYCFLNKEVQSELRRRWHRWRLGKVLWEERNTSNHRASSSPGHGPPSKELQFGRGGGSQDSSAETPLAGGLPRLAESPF

GLP-1 receptor = GLP-1 receptor (UniProt P43220 24-463, limits assumed)
GIP receptor [2] = target: T2, GIP receptor (UniProt P48546 22-466); remark: listed apart in the source
T2 sequence (looked up): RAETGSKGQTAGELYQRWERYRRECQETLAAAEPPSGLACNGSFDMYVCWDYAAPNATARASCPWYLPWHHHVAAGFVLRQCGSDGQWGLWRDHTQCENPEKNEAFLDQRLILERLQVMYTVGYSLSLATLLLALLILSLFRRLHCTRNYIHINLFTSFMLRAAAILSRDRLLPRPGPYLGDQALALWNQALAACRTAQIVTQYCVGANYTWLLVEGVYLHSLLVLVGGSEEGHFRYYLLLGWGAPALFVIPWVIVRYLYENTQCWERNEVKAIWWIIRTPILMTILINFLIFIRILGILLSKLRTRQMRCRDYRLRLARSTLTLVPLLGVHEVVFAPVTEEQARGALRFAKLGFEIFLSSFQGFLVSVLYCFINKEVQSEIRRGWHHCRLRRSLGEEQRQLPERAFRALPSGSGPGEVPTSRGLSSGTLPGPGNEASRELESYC

B1: mt-282 (peptide)
peptide: Y[Aib]EGTFTSDK(Myristoyl)SIYLDKQAA[Aib]EFVNWLLAG-NH2
modifications: N-terminus assumed
SMILES: CCCCCCCCCCCCCC(=O)NCCCC[C@H](NC(=O)[C@H](CC(=O)O)NC(=O)[C@H](CO)NC(=O)[C@@H](NC(=O)[C@H](Cc1ccccc1)NC(=O)[C@@H](NC(=O)CNC(=O)[C@H](CCC(=O)O)NC(=O)C(C)(C)NC(=O)[C@@H](N)Cc1ccc(O)cc1)[C@@H](C)O)[C@@H](C)O)C(=O)N[C@@H](CO)C(=O)N[C@H](C(=O)N[C@@H](Cc1ccc(O)cc1)C(=O)N[C@@H](CC(C)C)C(=O)N[C@@H](CC(=O)O)C(=O)N[C@@H](CCCCN)C(=O)N[C@@H](CCC(N)=O)C(=O)N[C@@H](C)C(=O)N[C@@H](C)C(=O)NC(C)(C)C(=O)N[C@@H](CCC(=O)O)C(=O)N[C@@H](Cc1ccccc1)C(=O)N[C@H](C(=O)N[C@@H](CC(N)=O)C(=O)N[C@@H](Cc1c[nH]c2ccccc12)C(=O)N[C@@H](CC(C)C)C(=O)N[C@@H](CC(C)C)C(=O)N[C@@H](C)C(=O)NCC(N)=O)C(C)C)[C@@H](C)CC
EC50 (GIP receptor [1]): 0.0133 nM

B2: mt-285 (peptide)
peptide: Y[Aib]EGTFTSDKSIYLDKQAA[Aib]EFVNWLLAG-NH2
modifications: N-terminus assumed
SMILES: CC[C@H](C)[C@H](NC(=O)[C@H](CO)NC(=O)[C@H](CCCCN)NC(=O)[C@H](CC(=O)O)NC(=O)[C@H](CO)NC(=O)[C@@H](NC(=O)[C@H](Cc1ccccc1)NC(=O)[C@@H](NC(=O)CNC(=O)[C@H](CCC(=O)O)NC(=O)C(C)(C)NC(=O)[C@@H](N)Cc1ccc(O)cc1)[C@@H](C)O)[C@@H](C)O)C(=O)N[C@@H](Cc1ccc(O)cc1)C(=O)N[C@@H](CC(C)C)C(=O)N[C@@H](CC(=O)O)C(=O)N[C@@H](CCCCN)C(=O)N[C@@H](CCC(N)=O)C(=O)N[C@@H](C)C(=O)N[C@@H](C)C(=O)NC(C)(C)C(=O)N[C@@H](CCC(=O)O)C(=O)N[C@@H](Cc1ccccc1)C(=O)N[C@H](C(=O)N[C@@H](CC(N)=O)C(=O)N[C@@H](Cc1c[nH]c2ccccc12)C(=O)N[C@@H](CC(C)C)C(=O)N[C@@H](CC(C)C)C(=O)N[C@@H](C)C(=O)NCC(N)=O)C(C)C
EC50 (GIP receptor [1]): 0.028 nM

B3: mt-283 (peptide)
peptide: Y[Aib]EGTFTSDK(Palmitoyl)SIYLDKQAA[Aib]EFVNWLLAG-NH2
modifications: N-terminus assumed
SMILES: CCCCCCCCCCCCCCCC(=O)NCCCC[C@H](NC(=O)[C@H](CC(=O)O)NC(=O)[C@H](CO)NC(=O)[C@@H](NC(=O)[C@H](Cc1ccccc1)NC(=O)[C@@H](NC(=O)CNC(=O)[C@H](CCC(=O)O)NC(=O)C(C)(C)NC(=O)[C@@H](N)Cc1ccc(O)cc1)[C@@H](C)O)[C@@H](C)O)C(=O)N[C@@H](CO)C(=O)N[C@H](C(=O)N[C@@H](Cc1ccc(O)cc1)C(=O)N[C@@H](CC(C)C)C(=O)N[C@@H](CC(=O)O)C(=O)N[C@@H](CCCCN)C(=O)N[C@@H](CCC(N)=O)C(=O)N[C@@H](C)C(=O)N[C@@H](C)C(=O)NC(C)(C)C(=O)N[C@@H](CCC(=O)O)C(=O)N[C@@H](Cc1ccccc1)C(=O)N[C@H](C(=O)N[C@@H](CC(N)=O)C(=O)N[C@@H](Cc1c[nH]c2ccccc12)C(=O)N[C@@H](CC(C)C)C(=O)N[C@@H](CC(C)C)C(=O)N[C@@H](C)C(=O)NCC(N)=O)C(C)C)[C@@H](C)CC
EC50 (GIP receptor [1]): 0.0122 nM

B4: mt-284 (peptide)
peptide: Y[Aib]EGTFTSDK(Stearoyl)SIYLDKQAA[Aib]EFVNWLLAG-NH2
modifications: N-terminus assumed
SMILES: CCCCCCCCCCCCCCCCCC(=O)NCCCC[C@H](NC(=O)[C@H](CC(=O)O)NC(=O)[C@H](CO)NC(=O)[C@@H](NC(=O)[C@H](Cc1ccccc1)NC(=O)[C@@H](NC(=O)CNC(=O)[C@H](CCC(=O)O)NC(=O)C(C)(C)NC(=O)[C@@H](N)Cc1ccc(O)cc1)[C@@H](C)O)[C@@H](C)O)C(=O)N[C@@H](CO)C(=O)N[C@H](C(=O)N[C@@H](Cc1ccc(O)cc1)C(=O)N[C@@H](CC(C)C)C(=O)N[C@@H](CC(=O)O)C(=O)N[C@@H](CCCCN)C(=O)N[C@@H](CCC(N)=O)C(=O)N[C@@H](C)C(=O)N[C@@H](C)C(=O)NC(C)(C)C(=O)N[C@@H](CCC(=O)O)C(=O)N[C@@H](Cc1ccccc1)C(=O)N[C@H](C(=O)N[C@@H](CC(N)=O)C(=O)N[C@@H](Cc1c[nH]c2ccccc12)C(=O)N[C@@H](CC(C)C)C(=O)N[C@@H](CC(C)C)C(=O)N[C@@H](C)C(=O)NCC(N)=O)C(C)C)[C@@H](C)CC
EC50 (GIP receptor [1]): 0.0186 nM

B5: mt-169 (peptide)
peptide: Y[Aib]QGTFTSDYSIYLDEQAAKEFVCWLLAG-NH2
modifications: lactam 16-20; N-terminus assumed
SMILES: CC[C@H](C)[C@H](NC(=O)[C@H](CO)NC(=O)[C@H](Cc1ccc(O)cc1)NC(=O)[C@H](CC(=O)O)NC(=O)[C@H](CO)NC(=O)[C@@H](NC(=O)[C@H](Cc1ccccc1)NC(=O)[C@@H](NC(=O)CNC(=O)[C@H](CCC(N)=O)NC(=O)C(C)(C)NC(=O)[C@@H](N)Cc1ccc(O)cc1)[C@@H](C)O)[C@@H](C)O)C(=O)N[C@@H](Cc1ccc(O)cc1)C(=O)N[C@@H](CC(C)C)C(=O)N[C@@H](CC(=O)O)C(=O)N[C@H]1CCC(=O)NCCCC[C@@H](C(=O)N[C@@H](CCC(=O)O)C(=O)N[C@@H](Cc2ccccc2)C(=O)N[C@H](C(=O)N[C@@H](CS)C(=O)N[C@@H](Cc2c[nH]c3ccccc23)C(=O)N[C@@H](CC(C)C)C(=O)N[C@@H](CC(C)C)C(=O)N[C@@H](C)C(=O)NCC(N)=O)C(C)C)NC(=O)[C@H](C)NC(=O)[C@H](C)NC(=O)[C@H](CCC(N)=O)NC1=O
EC50 (glucagon receptor): 0.199 nM
relative activity (glucagon receptor): 51.3%
EC50 (GLP-1 receptor): 0.057 nM
relative activity (GLP-1 receptor): 54.4%
EC50 (GIP receptor [2]): 0.142 nM
relative activity (GIP receptor [2]): 14.8%

B6: mt-168 (peptide)
peptide: YSQGTFTSDYSIYLDEQKAKEFVNWLLAGGPSSGAPPPS-NH2
modifications: lactam 18-21; N-terminus assumed
SMILES: CC[C@H](C)[C@H](NC(=O)[C@H](CO)NC(=O)[C@H](Cc1ccc(O)cc1)NC(=O)[C@H](CC(=O)O)NC(=O)[C@H](CO)NC(=O)[C@@H](NC(=O)[C@H](Cc1ccccc1)NC(=O)[C@@H](NC(=O)CNC(=O)[C@H](CCC(N)=O)NC(=O)[C@H](CO)NC(=O)[C@@H](N)Cc1ccc(O)cc1)[C@@H](C)O)[C@@H](C)O)C(=O)N[C@@H](Cc1ccc(O)cc1)C(=O)N[C@@H](CC(C)C)C(=O)N[C@@H](CC(=O)O)C(=O)N[C@@H](CCC(=O)O)C(=O)N[C@@H](CCC(N)=O)C(=O)N[C@H]1CCCCNC(=O)CC[C@@H](C(=O)N[C@@H](Cc2ccccc2)C(=O)N[C@H](C(=O)N[C@@H](CC(N)=O)C(=O)N[C@@H](Cc2c[nH]c3ccccc23)C(=O)N[C@@H](CC(C)C)C(=O)N[C@@H](CC(C)C)C(=O)N[C@@H](C)C(=O)NCC(=O)NCC(=O)N2CCC[C@H]2C(=O)N[C@@H](CO)C(=O)N[C@@H](CO)C(=O)NCC(=O)N[C@@H](C)C(=O)N2CCC[C@H]2C(=O)N2CCC[C@H]2C(=O)N2CCC[C@H]2C(=O)N[C@@H](CO)C(N)=O)C(C)C)NC(=O)[C@H](CCCCN)NC(=O)[C@H](C)NC1=O
EC50 (glucagon receptor): 2.61 nM
relative activity (glucagon receptor): 4.79%
EC50 (GLP-1 receptor): 1.72 nM
relative activity (GLP-1 receptor): 1.45%
EC50 (GIP receptor [2]): 6.24 nM
relative activity (GIP receptor [2]): 0.32%

B7: mt-280 (peptide)
peptide: Y[Aib]QGTFTSDYSIYLDKQAA[Aib]EFVNWLLAGGPSSGAPPPSK-NH2
modifications: N-terminus assumed
SMILES: CC[C@H](C)[C@H](NC(=O)[C@H](CO)NC(=O)[C@H](Cc1ccc(O)cc1)NC(=O)[C@H](CC(=O)O)NC(=O)[C@H](CO)NC(=O)[C@@H](NC(=O)[C@H](Cc1ccccc1)NC(=O)[C@@H](NC(=O)CNC(=O)[C@H](CCC(N)=O)NC(=O)C(C)(C)NC(=O)[C@@H](N)Cc1ccc(O)cc1)[C@@H](C)O)[C@@H](C)O)C(=O)N[C@@H](Cc1ccc(O)cc1)C(=O)N[C@@H](CC(C)C)C(=O)N[C@@H](CC(=O)O)C(=O)N[C@@H](CCCCN)C(=O)N[C@@H](CCC(N)=O)C(=O)N[C@@H](C)C(=O)N[C@@H](C)C(=O)NC(C)(C)C(=O)N[C@@H](CCC(=O)O)C(=O)N[C@@H](Cc1ccccc1)C(=O)N[C@H](C(=O)N[C@@H](CC(N)=O)C(=O)N[C@@H](Cc1c[nH]c2ccccc12)C(=O)N[C@@H](CC(C)C)C(=O)N[C@@H](CC(C)C)C(=O)N[C@@H](C)C(=O)NCC(=O)NCC(=O)N1CCC[C@H]1C(=O)N[C@@H](CO)C(=O)N[C@@H](CO)C(=O)NCC(=O)N[C@@H](C)C(=O)N1CCC[C@H]1C(=O)N1CCC[C@H]1C(=O)N1CCC[C@H]1C(=O)N[C@@H](CO)C(=O)N[C@@H](CCCCN)C(N)=O)C(C)C
EC50 (GIP receptor [1]): 0.0149 nM
